Entries after “also recorded” stand apart in the source; their conditions may differ.

For series [1], the system named is MGMT. In words: Western blot of MGMT expression in tumor cell lines after scrape-loading or transfection-agent delivery of AMONs. The format is cell-based, human. How it is done: The ability of each of three AMONs (SEQ ID NO: 1, SEQ ID NO: 2, and SEQ ID NO: 3) to inhibit MGMT expression in tumor cell lines was assessed. Three MGMT expressing solid tumor cell lines (T98G Glioma, H460 and A549 non-small-cell-lung cancer cell lines) were transduced with AMONs using a scrape-loading technique (Partridge M et al, Antisense Nucleic Acid Drug Dev 6, 169-175 (1996); incorporated by reference herein). […] This was replicated in H460 and A549 NSCLC lines.
[…] transfection agents were also used to introduce the AMONs into the cells and produced similar results (FIG. 1B). MGMT silencing was not achieved when cells were exposed to AMONS without scrape-loading or liposomal transfection agents (controls).
Cells were maintained at 37° C. and in an atmosphere containing 5% CO2. Three MGMT antisense oligonucleotide sequences: SEQ ID NO: 1-5′-[…]-3′; SEQ ID NO: 2-5′-[…]-3′; SEQ ID NO: 3-5′-[…]-3′ and one non-specific control sequence: SEQ ID NO: 4-5′-[…]-3′ were synthesized and purchased from Gene Tools, LLC (Philomath, Oreg., USA). Mouse anti-tubulin antibody (T9026) was purchased from Sigma (St. Louis, Mo., USA). Anti-MGMT (#2739), caspase 3 (#9662) and phospho-p53 (Ser15) (#9284) antibodies were purchased from Cell Signaling (Danvers, Mass., USA). Mouse anti-dynamin II (sc-166526) monoclonal antibody was purchased from Santa Cruz Biotechnology (Santa Cruz, Calif., USA).
Delivery of MGMT-morpholino in vitro into the cancer cells: Scrape delivery: 10^6 cancer cells were seeded on a 10-cm culture plate. The culture plate was placed on a flat surface and the cells scraped off the surface with a sterile cell scraper. Different doses or combinations of MGMT-morpholinos were added to the cells. Scraped cell suspensions were pipetted up and down twice and transferred to another culture plate.
Transfection agent delivery: 10^6 cancer cells were seeded in 10-cm culture plate. Cells were treated with transfection agent DharmaFECT (GE Dharmacon; Lafayette, Colo., USA) and MGMT-morpholinos mixture (1:1; v/v).
(§1) Cell viability assay and western blot analyses: Cell viability and proliferation was measured using the WST-1 Proliferation Assay Kit from Chemicon International Inc. (Temecula, Calif.). Cells or tissues were harvested and then washed with ice-cold PBS twice before the addition of RIPA lysis buffer containing protease and phosphatase inhibitors. Protein concentration was quantified using the Bio-Rad method. Equal amounts of protein were loaded into each well and separated by 7.5 or 12% SDS-PAGE gel followed by transfer onto polyvinylidene difluoride membranes (BioRad, Richmond, Calif.). Membranes were blocked using 5% nonfat dry milk or 2% bovine serum albumin (BSA) in PBS-T. The blots were then incubated with primary antibodies (1:200-1:1,000) overnight at 4° C. Secondary antibody (1:5,000; Cell signaling technology, Danvers, Mass.) was incubated for 2 h at room temperature. Immunoblots were developed using the chemiluminescence detection system (Thermo Scientific, Waltham, Mass.) according to the manufacturer's protocol and autoradiography. Quantification of immunoblotting signal of respective proteins was performed using UN-SCAN-IT Gel software (Silk Scientific, Inc., Orem, Utah).
Background: In western blotting, separated proteins are transferred to a membrane and probed.

The next series has as its system T98G cells. Put plainly: Temozolamide cytotoxicity after radiation and AMONs (Western blot of phosphorylated-p53 and caspase 3). The settings on record: for Susceptibility of cells to temozolamide (phosphorylated-p53, caspase 3): T98G, AMONs 1 day after 1 Gy, 75 or 150 μg/ml temozolamide two days later, lysates 1 and 4 days, FIG. 3. The class given is cell-based, human. As for the experimental part:
FIG. 3 is a flow chart of an experimental model that includes treatment of cells with radiation, morpholino oligonucleotides of SEQ ID NO: 1, SEQ ID NO: 2, and SEQ ID NO: 3, and 75 or 150 μg/ml temozolamide as indicated.
MGMT expressing glioma cell lines such as T98G are known to be resistant to the cytotoxic effects of temozolomide (Yoshino A et al, Int J Oncol 36, 1367-1377 (2010); incorporated by reference herein). AMONs were administered 1 day after exposure of the T98G cells to 1 Gy of radiation and 75 or 150 μg/ml temozolamide administered two days after administration of the AMONs. Whole cell lysates were then collected 1 and 4 days after exposure to the temozolamide and a Western blot using antibodies specific for the indicated proteins performed.
as §1

A further series concerns T98G. Conditions: Yoshino A et al 2010; cited from earlier work.
Series [2] relates to MGMT. In words: Western blot of MGMT expression after ionizing-radiation-enhanced delivery of AMONs, without scrape-loading or transfection agents. The class given is cell-based, human. As for the experimental part: The ability of ionizing radiation to enhance the cytosolic delivery of AMONs in T98G glioma cell lines and suppress MGMT expression was assessed. T98 G cells were exposed to AMON SEQ ID NO: 2 alone, SEQ ID NO: 3 alone, or the combination of SEQ ID NO: 1, SEQ ID NO: 2 and SEQ ID NO: 3, one hour after exposure to 1 Gy of ionizing radiation. […] As with the use of scrape loading and lysosomal transfection agents, the inhibition of expression with radiation enhanced delivery of AMONS was transient, with peak inhibition at 3 days and restoration of MGMT expression by 7 days. Based on these findings a combination of sequences 1, 2 and 3 were used for further experiments.
To determine the optimal timing for exposure to AMON with respect to exposure to radiation, T98G cell lines were exposed to AMONs 2 hours and 1 hour before radiation as well as 1 and 24 hours after radiation exposure (FIG. 2B). The best inhibition was observed when cells were exposed to AMON 24 hours after radiation. This time line was adopted for further experiments. Different tumor cell lines required different doses of radiation to enhance delivery of AMON. Knockdown could be achieved in T98G cell lines at 1 Gy while H460 and A549 cell lines required exposure to 6-12 Gy for best results with no inhibition at lower doses of ionizing radiation (FIG. 2C).
Radiation delivery: cell culture: 10^6 cancer cells were exposed to different doses of radiation (0.5-12 Gy) at room temperature using a Philips gamma chamber (Philips Medical Systems, Andover, Mass.). After irradiation, cells were treated with mixtures of MGMT-morpholinos (SEQ ID NO: 1, SEQ ID NO: 2, SEQ ID NO: 3=1:1:1; v/v/v) at different time points and at a final concentration of 15 μM.
as §1

Series [3] relates to MGMT. Put plainly: Subcutaneous H460 xenograft tumors in athymic nude rats: local radiation plus iv AMON, Western blot of MGMT in tumor lysates. The class given is in vivo, human. As for the experimental part:
Due to the inconsistent growth of intracranial T98G cell lines, subcutaneous H460 NSCCL tumors in athymic nude rats were studied. 2.5×10^7 H460 cells were subcutaneously injected in each of their hind limbs of 6 animals. When the tumor reached 10 mm in diameter, a single dose of 5 Gy of ionizing radiation was delivered to the tumor field. AMON was administered intravenously (iv) through the femoral vein 24 hours after radiation. Tumors were harvested 3 days after exposure to AMONs.
Delivery of MGMT-morpholino in vivo: Female (200-250 g) nude (mu/rnu) and heterozygous (rnu/wt) rats were selected from the breeding colony maintained in the animal facility. For subcutaneous tumor model, a total of 2.5×10^7 cells were mixed (ratio 1:1; v/v) with Matrigel Basement Membrane Matrix (BD Biosciences, Bedford, Mass.), and the mixture was injected subcutaneously into both left and right hind legs. At d 7 after inoculation, right SQ tumor was exposed to single dose of radiation (5 Gy) with shielding the rest of body using a Philips gamma chamber (Philips Medical Systems, Andover, Mass.), and left SQ tumor of the same animal without radiation was served as control. A total of 30 mM MGMT-morpholinos SEQ ID NO: 1, SEQ ID NO: 2, SEQ ID NO: 3=1:1:1; v/v/v) was administered intravenously 24 h after irradiation. Tissues (SQ tumors, brain, liver, spleen and kidney) were harvested 3 days after morpholinos and subjected to further protein and DNA analysis.
Cell viability assay and western blot analyses: Cell viability and proliferation was measured using the WST-1 Proliferation Assay Kit from Chemicon International Inc. (Temecula, Calif.). Cells or tissues were harvested and then washed with ice-cold PBS twice before the addition of RIPA lysis buffer containing protease and phosphatase inhibitors. Protein concentration was quantified using the Bio-Rad method. […] Quantification of immunoblotting signal of respective proteins was performed using UN-SCAN-IT Gel software (Silk Scientific, Inc., Orem, Utah).
For orientation: A xenograft is tissue or cells of one species grown in another, often human tumour cells in immunodeficient mice.

The next series relates to MGMT gene. Put plainly: MGMT-gene methylation status of subcutaneous tumors by pyrosequencing. The class given is in vivo, human. The settings on record: after implantation, radiation or AMONs. How it is done: Measurement of MGMT DNA methylation status: Subcutaneous xenograft tumor DNA was isolated using DNeasy Blood & Tissue Kit from Qiagen International (Germantown, Md., USA). In order to assure the quality and purity of DNA samples, the ratio of A260/A280 was determined and recorded samples was above 1.9. The percentage methylation status of MGMT DNA at CpG islands in samples were measured at using pyrosequening.

Setting [4] is: T98G cells, scrape-loading, FIG. 1A.
Setting [5] is: T98G cells, scrape-loading and liposomal transfection agents.
[6] abbreviates: T98G cells, AMON one hour after 1 Gy ionizing radiation, lysates 3 and 7 days, FIG. 2A.

For the molecule “5′-TTTCGTGCAGACCCTGCTCTT-3′ (all phosphorodiamidate morpholino (PMO)) [SEQ ID NO: 1]”, the “Inhibition of MGMT expression (Western blot)” value in the series with MGMT [1] (setting [4]) is reported as “inhibition of MGMT expression”.
On to `Cn1nnc2c(C(N)=O)ncn2c1=O` [temozolomide, reference compound], for which, in the series with T98G cells (T98G after 1 Gy and AMONs, 75 and 150 μg/mL), the “Dose dependence of enhanced cytotoxic effects” value was “dose dependent”. Besides, the “Cytotoxic effects on MGMT expressing glioma cell lines” value in the series on T98G is recorded as “resistant”.
On to “5′-TTCCATAACACCTGTCTGGTT-3′ (morpholino, chemistry not fully specified) [SEQ ID NO: 2]”, for which the “Inhibition of MGMT expression (Western blot)” value in the series with MGMT [1] (setting [4]) was “most effective in silencing MGMT expression; also recorded: inhibition of MGMT expression”.
For “5′-ATTCCTTCACGGCCAGTCCTT-3′ (morpholino, chemistry not fully specified) [SEQ ID NO: 3]”, the “Inhibition of MGMT expression (Western blot)” value in the series on MGMT [1] (T98G cells, scrape delivery or lipofectamine/liposomal transfection, lysates 3 and 7 days after treatment, FIG. 1C) is listed as “transient; also recorded: inhibition of MGMT”; in the series on MGMT [1] (setting [4]), “most effective in silencing MGMT expression; also recorded: inhibition of MGMT expression”; in the series with MGMT [2] (setting [6]), “inhibition of MGMT”. In addition, in the series on MGMT [1] (setting [5]), the “Time of best inhibition of MGMT expression” value amounted to 3 days. Besides, in the series on MGMT [1] (setting [5]), the “Time of restoration of MGMT expression” value is listed as ≤ 7 days.
For “SEQ ID NO: 2 and SEQ ID NO: 3: combination of morpholino oligonucleotides of SEQ ID NO: 2 and SEQ ID NO: 3 (chain 1 TTCCATAACACCTGTCTGGTT; chain 2 ATTCCTTCACGGCCAGTCCTT; morpholino, chemistry not fully specified)”, in the series with MGMT [2] (setting [6]), the “Inhibition of MGMT expression (Western blot)” value is reported as “inhibition of MGMT”.

B1: combination of SEQ ID NO: 1, SEQ ID NO: 2 and SEQ ID NO: 3: mixture of MGMT-morpholinos SEQ ID NO: 1, SEQ ID NO: 2, SEQ ID NO: 3 = 1:1:1 v/v/v; used for experiments after b163 (nucleic acid)
chain 1: TTTCGTGCAGACCCTGCTCTT
chain 2: TTCCATAACACCTGTCTGGTT
chain 3: ATTCCTTCACGGCCAGTCCTT
modifications: morpholino mixture, chemistry not fully specified
notes: used for experiments after b163
For the molecule B1, the “Susceptibility of cells to temozolamide (phosphorylated-p53, caspase 3)” value is on record as “susceptible to temozolomide” in the series with T98G cells; “enhanced cytotoxic effects of temozolamide” in the series on T98G cells (listed as morpholino oligonucleotides of SEQ ID NO: 1, SEQ ID NO: 2, and SEQ ID NO: 3). The “Inhibition of MGMT expression (Western blot)” value in the series on MGMT [1] (H460 NSCLC cells, transfection agents, 6 μM and 15 μM, FIG. 1B) is given as “inhibition of MGMT expression”; in the series with MGMT [1] (setting [4]), “most effective in silencing MGMT expression”; with MGMT [1] (T98G cells, scrape-loading, FIG. 1A, SEQ ID NO: 2, and SEQ ID NO: 3) it was “inhibition of MGMT expression”; with MGMT [2] (T98G cells, 24 hours after exposure to the dose of radiation indicated, FIG. 2C) it was “inhibition of MGMT”; in the series on MGMT [2] (T98G cells, AMON one hour after 1 Gy ionizing radiation, lysates 3 and 7 days, FIG. 2A, SEQ ID NO: 2, and SEQ ID NO: 3) it was “inhibition of MGMT”; with MGMT [2] (T98G cells, AMON one hour after 1 Gy ionizing radiation, lysates 3 and 7 days, FIG. 2A, listed as combination of sequences 1, 2 and 3) it was “most effective at inhibiting MGMT expression”. Moreover, the “Inhibition of MGMT expression (Western blot)” value in the series on MGMT [2] (T98G cells, treated before or after exposure to 1 Gy radiation, FIG. 2B) is listed as “inhibition of MGMT”. The “Inhibition of MGMT expression in tumors (Western blot)” value in the series with MGMT [3] (H460 subcutaneous control tumors, systemic AMON but no radiation) is “not seen”; with MGMT [3] (H460 subcutaneous tumors, 5 Gy to tumor 24 hours before iv AMON, harvested 3 days after), “inhibition of MGMT expression was achieved”; in the series with MGMT [3] (H460 subcutaneous tumors, 5 Gy to tumor 24 hours before iv AMON, harvested 3 days after, listed as combination of morpholino oligonucleotides of SEQ ID NO: 1, SEQ ID NO: 2, and SE), “inhibition of MGMT expression”. In the series on MGMT gene, the “Changes in MGMT-gene methylation status” value is listed as “No significant changes”. The “Radiation dose required for best results (knockdown)” value with MGMT [2] (H460 and A549 cell lines) is reported as 6-12 Gy. Moreover, the “Inhibition of MGMT expression at lower doses of ionizing radiation” value in the series on MGMT [2] (H460 and A549 cell lines, doses below 6-12 Gy) is on record as “no inhibition”. Further, the “Radiation dose at which knockdown could be achieved” value in the series with MGMT [2] (T98G cell lines) was 1 Gy. For the same molecule, the “Time of exposure to AMON after radiation that gave the best inhibition” value in the series on MGMT [2] (T98G cells, tested 2 h and 1 h before, 1 and 24 h after radiation) is 24 h.

Source of the values: patent publication US11679121B2, “Morpholino oligonucleotides useful in cancer treatment” (United States Government As Represented By The Department …, priority 2018, dated 2023).
